Results on 30 sequences are retold here after the nanobody polyreactivity screen of Harvey et al. (2022).

This data set is described as follows: yeast display, Sf9 membrane polyspecificity reagent, FACS + sequencing; frameworks hold sequencing errors. A digest of the protocol: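 A synthetic nanobody library was expressed on Saccharomyces cerevisiae BJ5465 by galactose induction for 36–48 hours. The library was stained for 1 hour at 4 °C with 10% biotinylated, detergent-solubilized Sf9 membrane reagent and enriched with streptavidin microbeads before FACS. Low and high (top ~1%) gates were set on anti-HA fluorescence for expression and streptavidin fluorescence for reagent binding, and each polyreactivity label reflects the gate of origin.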
On to “QVQLVESGGGLVQAGGSLRLSCAASGSIFRHNVMGWYRQAPGKERELVAAISGGGGRTYYADSVKGRFTISRDNAKNTVYLQMNSLKPEDTAVYYCNAYVGLSEGDYWGQGTQVTVSS”, for which the “polyreactivity (PSR sort gate)” value is on record as “high polyreactivity”.

With “QVQLVESGGGLVQAGGSLRLSCAASGSIFPWNTMGWYRQAPGKERELVARISTSGASTYYADSVKGRFTISRDNAKNTVYLQMNSLKPEDTAVYYCAARKRPFYKYDYWGQGTQVTVSS”, the “polyreactivity (PSR sort gate)” value was “high polyreactivity”. With “QVQLVESGGGLVQAGGSLRLSCAASGSIFWGYAMGWYRQAPGKERELVATITYGGDSTYYADSVKGRFTISRDNANNTVFLQMNSLKTEDTAVYYCNVGVEPYDYDYWGQCTQVTVSS”, the “polyreactivity (PSR sort gate)” value is on record as “low polyreactivity”. The value for “QVQLVESGGGLVQAGGSLRLSCAASGSTFYVYAMGWYRQAPGKERELVAAIDSGDSTNYADSVKGRFTISRDNAKNTVYLQMNSLKPEDTAVYYCAADRTVYPFNYWGQGTQVTVSS” was “low polyreactivity”; that for “QVQLVESGGGLVQAGGSLRLSCAASGSIFRINDMGWSRQAPGKERELVAAITFSGGSTYADSVKGRFTISRDNAKNTVYLQMNSLKPEDTAVYYCNADGAYWTDYYLYDYWGQGTQVTVSS” was “low polyreactivity”; that for “QVQLVESGGGLDQAGGSLRLSCAASGLIFYDKMGWYRQAPRKERELVAAISSSCGSTSYADSVKGRFTISRDNAKHTVYLQMNSLKPEDTAVYYCAADSYPAYLGFVGFDYWGQGTQVTVSS” was “low polyreactivity”. The value for “QVQLVESGGGLVQAGGSLRLSCAASGSTFLQNAMGWYRQAPGKEREFVAAISYTGANTYYADSVKGRFTISRDNAKNTVYLQMNSLKPEDTAVYYCNRYAKQYLSGTVPVNLDYWGQGTQVTVSS” was “high polyreactivity”; that for “QDQLGESGGGLVQAGGSLRLICAASGRIFVSNTMGCYRQAPGKERELVATISRRGGITYYADSVKGRFTISRDNAKNTVYLQMNSLKPEDTAVYYCAAESYSFWLYDYCGQGTQVTVSS” was “high polyreactivity”. The value for “QVKLVESGGGLVQAGGSLRLSCAASGRTFYRNTMGWYRQAPGKERELVAAITRSGGSTYYADSVKGRFTISRDNAKNTVYLQMNRLKPEDTAVYYCARPKIHGETRSYGYGYWGQGTQVTVSS” was “high polyreactivity”; that for “QVQLVESGGGLVQAGGSLRLSCAASGYTFYYNAMGWYIQAPGKERELVARISRSGGSTYADSVKGRFTISRDNAKNTVYLQMNSLKPEDTAVYYCNADAYGTPEFTSYAVRYDYWGQGTQVTVSS” was “low polyreactivity”; that for “QVHLVESGGGLVQAGGSLRLSCAASGSTFNYNAMGWYRQAPGKERELVAAISGSGGSTYYADSVKGRFTISRDNAKNSVYLQMNSLKPEDTAVDYCAGLYGPGRAFDYWGQGTQVTVSS” was “low polyreactivity”. As to “QVQLVESGGGLVQAGGSLRLSCAASGIIFRANAMGWYRQAPGKERELVAAISRRGGSTYYADSVKGRFTISRDNAKNTVFLQMNSLKPEDTAVYYCAADGKNYPVGYDYWGQGTQVTVSS”, the “polyreactivity (PSR sort gate)” value is “high polyreactivity”.

As for “QDQLVESGGGLVQAGGSLRLSCAASGRTFLRNAMGWYRQAPGKERELVAAISRSGGSTYYADSVKGRVTISRDNAKNTVYLQMNSLKPEDTAVYYCAADDYGGYYYWGQGTQVTVSS”, the “polyreactivity (PSR sort gate)” value is recorded as “high polyreactivity”.

Consider “QVQLVESGGGLVQAGGSLRISCAASGRTFWKYVRGWYRQAPGKERELVAVISRPAGSTYYADSVKGRFTISRDNAKNTVYLQMNSLKPEDTAVYYCAKRPKNKPVLGDYDHWGQGTQVTVSS”, for which the “polyreactivity (PSR sort gate)” value is given as “low polyreactivity”.

For the sequence “QFQLVESGGGLVQAGGSLRLSCAASGRIFVYYMGWYRQAPRKERELVAALSFGGGSTYYADSVKGRFTISRDNAKNTVYLQMNSLKPEDNAVYYCNADGDDLDWNYYLVQYDYWGQGTQVTVSS”, the “polyreactivity (PSR sort gate)” value is “low polyreactivity”. The value for “QVQLVESGGGLVQAGGSLRLSCAASGSTFTVNGMGWYRQAPGKERELVASITWSGGSTYYADSVKGRFTISRDNAKNTVYLQMNSLKPEATAVYYCAADEKLYITGYDYWGQGTQVTVSS” was “low polyreactivity”. The value for “QVQLVESGGGLVQAGGSLRLSCAASGFTYIFYAMGWYRQAPGKERELVAAITWDGDRTYYADSVKGRFTISRDNAKNTVYLQMNSLKPEDTAVYYCNADEGGNYREDYWGQGTQVTVSS” was “low polyreactivity”; that for “QVQLVESGGGLVQAGGSLRLSCAASGRIFPYYAMGWSRQAPGKEREFVAAITKRGGSTSYADSVKGRFTISRDNAKNTVYLQMNSLKPQDTAVYYCNARLYRGQDRYDYWGQGTQVTVSS” was “low polyreactivity”; that for “QVQLVESGGGLVQAGGSLRLSCAASGIILWYNVMGWYRQAPGKERELVASITGDGDDTYYADSVKGRFTMSRDNAKNTVYLQMNSLKPEDTAVYYCAKENYGILYSTLYDYWGQGTQVTVSS” was “low polyreactivity”. The value for “QVQLVESGGGLVQAGGSLRLSCAASGRIFTGNVMGWYRQAPGKERELVAAITYRRGSTYYADSVKGRFTISRDNAKNTVYLQMNSLKPEDSAVYYCNTGWDPYGYDYWGQGTQVTVSS” was “low polyreactivity”; that for “QVQLVESGGGLVQAGGRLRLSCAASGFTFLDYAMGWYRQAPGKERELVASISSSGGSTRFADSVKGRFTISRDNAKNTVYLQMNSLKPEDTAVYYCNADVDLFGAAYGYDYWGQGTQVTVSS” was “low polyreactivity”; that for “QVQLVESGGGLVQAGGSLRLSCAASGRTFAVNGKGWYRPAPGKERELVAAISSGGSTNYADSVKARFTISRDNAKNTVYLQLNSLKPEDTAVYYCAADYTRAHISYYYWGQGTQVTVSS” was “high polyreactivity”.

On to “QVQLEESGGGLVQAGGSLRLSCAASGRTFRFYAMGWYRQAPGKERELVAAISESGGNTYYADSVKGRFTISRDNAKNTVYLQMNSLKPEDTAVYYCAARGRWKYNYWGQGTQVTVSS”, for which the “polyreactivity (PSR sort gate)” value was “high polyreactivity”.

Regarding “QVQLVESGGGLVQAGGSLRLSCAASGSIFTDNAMGWYRQAPGKERALVAAISWIGDSTDYADSVKGRFTISRDNAKNTVYLQMNSLKPDDTAVYFCAADAKVVSPLYRANDIGMYYWGQGTQVTVSS”, the “polyreactivity (PSR sort gate)” value is listed as “low polyreactivity”. Consider “QVQLEESGGGLDQAGGSLRLSCAASGRTLATYAMGWYRQAPGKERELVAAISSSGTRTYYADSVKGRFTISRDNAKNTVYFQMNSLNPEDTAVYYCNAGPGYDYWGQGTQLTVSS”, for which the “polyreactivity (PSR sort gate)” value was “high polyreactivity”. For “QVQLVESGGGLVQAGGSLRLSCAASGSIFILYMGWYRQAPGKERELVATISSGGSTNYADSVKGRFTISRDNAKNTVYLQMNSLKPEDTAVYYCNARGSERVDTYSLYDYWGQGTQVTVSS”, the “polyreactivity (PSR sort gate)” value was “low polyreactivity”. The value for “QVQLVESGGGLVQAGGRLRLSCAASGRTFGSYAMGWYRQAPGKERELVAAISWSDGSTYYADSVKGRFTISRDNAKNTVYLQMNSLKPEDTAVYYCHWAKWYRYGGYRSRFDYWGQGTQVTVSS” was “low polyreactivity”. The value for “QVQLVESGGGLVQAGGSLRLSCAASGLTFNRNAMGWYRQAPGKERELVARISRGGSTNYADSVKGRFTISRDNAKNTVYLQMNSLKPEDTAVYYCAKRGNPRSVVHYNSWGQGTQVTVSS” was “high polyreactivity”. The value for “QVQLVESGGGLVQAGGSLRLSCADSGRIFGINAKGWYRQAPGKARELVASISRRVGRTSYADSVKGRFTISRDNAKNTVYLQMNSLKPEDTAGYFCAADVWNDGSWTDYDYWGQGTQVTVSS” was “high polyreactivity”; that for “QVQLVESGGGLVQAGGSLRLSCAASGFTFTSNAMGWYRQAPGKERELVAAISRSGGRTYYADSVKGRFTISRDNAKNTVYLQLNSLKPEDTAVYYCNVRAEKRSYELYAYDYWGQGTQVTVSS” was “high polyreactivity”.
